Data taken from patent US20060153778A1 (MannKind Corporation, priority 2005, published 2006).
Read-outs that look alike come from different tables or passages of the source.

What was measured:
[1] = Glucose clamp study after inhalation of Technosphere/Insulin: glucose infusion rate (biological action), tolerability; type: in vivo, human; details: for T-50% (time from baseline to half-maximal after passing Tmax), calculated on glucose infusion rate / Tmax, calculated on glucose infusion rate / T50% (time from baseline to half-maximal values), calculated on glucose infusion rate: glucose clamp; for T50% (time from baseline to half-maximal values), calculated on glucose infusion rate: healthy male volunteers
Description: (§1) The volunteers were in good health, as judged by physical examination, age: 18 to 40 years, body mass index: 18 to 26 kg/m^2, capability to reach peak inspiratory flow of ≧4 L/sec measured by a computer assisted spirometry and a FEV1 (FEV1=forced expiratory volume in one second) equal to or greater than 80% of predicted normal.
(§2) On the morning of the study days, the subjects came to the hospital (fasting, except for water, from midnight onward) at 7:30 a.m. The subjects were restricted from excessive physical activities and an intake of alcohol for 24 hours before each treatment day. They were randomly assigned to one of the three treatment arms. […] Blood glucose was kept constant at a level of 90 mg/dL throughout the glucose clamp by a glucose controlled infusion system (BIOSTATOR™, Life Science Instruments, Miles Laboratories, Elkhart, Ind.). The glucose clamp algorithm was based on the actual measured blood glucose concentration and the grade of variability in the minutes before to calculate the glucose infusion rates for keeping the blood glucose concentration constant. […] The duration of the clamp experiment was 6 hours from time point 0. Glucose infusion rates, blood glucose, serum insulin and C-peptide were measured.

[2] = Glucose clamp study: serum insulin concentrations, bioavailability; type: in vivo, human
Description: as §1
as §2, with “0.” for “0. Glucose infusion rates, blood glucose, serum insulin and C-peptide were measured.”

[3] = Time to peak blood concentration and uptake rate after pulmonary delivery (general statements)
[4] = in vivo
[5] = in vivo; remark: listed apart in the source

insulin: insulin given as 5 IU intravenous or 10 IU subcutaneous injection, or by the pulmonary route without fumaryl diketopiperazine; comparator
T to baseline, calculated on glucose infusion rate ([1]; 5 IU insulin intravenous, clamp duration 6 hours): 240 min
T-50% (time from baseline to half-maximal after passing Tmax), calculated on glucose infusion rate ([1]; 5 IU insulin intravenous): 1.37 h
Tmax, calculated on glucose infusion rate ([1]; 5 IU insulin intravenous): 0.233 h
T50% (time from baseline to half-maximal values), calculated on glucose infusion rate ([1]; 5 IU insulin intravenous): 9 min
T-50% (time from baseline to half-maximal after passing Tmax), calculated on glucose infusion rate ([1]; 10 IU insulin subcutaneous): 4 h
Tmax, calculated on glucose infusion rate ([1]; 10 IU insulin subcutaneous): 2.72 h
T50% (time from baseline to half-maximal values), calculated on glucose infusion rate ([1]; 10 IU insulin subcutaneous): 60 min
T50% (time from baseline to half-maximal values), calculated on insulin levels ([2]; 5 IU insulin intravenous): 2 min
T to baseline, calculated on insulin levels ([2]; 5 IU insulin intravenous): 60 min
T-50% (time from baseline to half-maximal after passing Tmax), calculated on insulin levels ([2]; 5 IU insulin intravenous): 0.1 h
Tmax, calculated on insulin levels ([2]; 5 IU insulin intravenous): 0.083 h
T to baseline, calculated on insulin levels ([2]; 10 IU insulin subcutaneous): 360 min
T-50% (time from baseline to half-maximal after passing Tmax), calculated on insulin levels ([2]; 10 IU insulin subcutaneous): 4.17 h
Tmax, calculated on insulin levels ([2]; 10 IU insulin subcutaneous): 2.02 h
Time to peak blood concentrations ([3]; pulmonary route without fumaryl diketopiperazine): 25 to 60 min
Time to peak blood level ([3]; subcutaneous injection): 30 to 90 min

salmon calcitonin
Time to peak blood concentrations [4]: 3 to 10 min

O=C(O)/C=C/C(=O)NCCCC[C@@H]1NC(=O)[C@H](CCCCNC(=O)/C=C/C(=O)O)NC1=O [FDKP, fumaryl diketopiperazine]
Transit from the lungs [5]: kinetics similar to that of insulin

CCNC(=O)[C@@H]1CCCN1C(=O)[C@H](CCCNC(=N)N)NC(=O)[C@H](CC(C)C)NC(=O)[C@@H](CC(C)C)NC(=O)[C@H](Cc1ccc(O)cc1)NC(=O)[C@H](CO)NC(=O)[C@H](Cc1c[nH]c2ccccc12)NC(=O)[C@H](Cc1c[nH]cn1)NC(=O)[C@@H]1CCC(=O)N1 [leuprolide]
Time to peak blood concentrations [4]: 3 to 10 min

parathyroid hormone 1-34: peptide complexed with FDKP for pulmonary delivery
Time to peak blood concentrations [4]: 3 to 10 min
